According to patent publication US20250066450A1 (LASK PHARMA, published 2025):

Molecular target: T1, BMP10 (UniProt O95393 317-424)
T1 sequence (looked up): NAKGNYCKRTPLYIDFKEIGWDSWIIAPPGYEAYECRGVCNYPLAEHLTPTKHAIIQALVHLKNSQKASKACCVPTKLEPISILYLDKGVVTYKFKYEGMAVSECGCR
Test: Biacore (SPR); Fc fusion captured with anti-Fc antibody, ligand injected (FIG. 3B)
Experimental: A Biacore™-based binding assay was used to compare ligand binding selectivity of the ALK6 variant-Fc dimeric complex (e.g., SEQ ID NO: 46) described above with that of ALK6 wt-Fc complexes (SEQ ID NO: 49). The Fc dimeric complexes were independently captured onto the system using an anti-Fe antibody. Ligands were injected and allowed to flow over the captured receptor protein.

binding result: no binding
B1: ALK6-Fc fusion polypeptide (SEQ ID NO: 89) (Fc fusion)
chain: KKEDGESTAPTPRPKVLRCYCSGHCPEDSVNNICSTDGYCFTMIEEDDSGLPVVTSGCLKLEGSDFQCRDTPIPHQRRSIECCTERNECNKDLHPTLPPVVIGPFFDGSIRTGGGGSGGGGSGGGGSGGGGSTHTCPPCPAPEAAGGPSVFLFPPKPKDTLMISRTPEVTCVVVDVSHEDPEVKFNWYVDGVEVHNAKTKPREEQYNSTYRVVSVLTVLHQDWLNGKEYKCKVSNKALPAPIEKTISKAKGQPREPQVYTLPPSREEMTKNQVSLTCLVKGFYPSDIAVEWESNGQPENNYKTTPPVLDSDGSFFLYSKLTVDKSRWQQGNVFSCSVMHEALHNHYTQKSLSLSPG
